Measured values: patent publication US12662541B2, “Antibody-drug conjugates against the receptor tyrosine kinase EphA5” (Rutgers, The State University of New Jersey, priority 2021, dated 2026)
Residue numbers refer to the chain shown, from its start.

B1: VH2/VK3: humanized anti-EphA5 antibody, VH SEQ ID NO:3, VL SEQ ID NO:11 (antibody, V domains shown)
VH: EVTLVESGGGLVQPGGSLKLSCAASGFTFSTFGIHWVRQAPGKGLEWVAYISGASTTIYYADTVKGRFTISRDNSKNTLYLQMNSLRSEDTAMYYCARYGTSFPYGLDYWGQGTLVTVSS
VL: DIVMTQSPDSLAVSLGERATINCKASQSVDYDGDSYMNWYQQKPGKAPKLLIYGASNLESGIPDRFSGSGSGTDFTLTISRLEPEDAAVYYCQQSNEDPFTFGQGTKLEIK
B2: VH4/VK5: humanized anti-EphA5 antibody, VH SEQ ID NO:5, VL SEQ ID NO:13 (antibody, V domains shown)
VH: B1 VH with T3Q, S88A, M93V
VL: B1 VL with A25S
B3: VH5/VK1: humanized anti-EphA5 antibody, VH SEQ ID NO:6, VL SEQ ID NO:9 (antibody, V domains shown)
VH: B1 VH with T3Q, T63S, S88A, M93V
VL: B1 VL with D9G, P84E, V89S
B4: VH4/VK1: humanized anti-EphA5 antibody, VH SEQ ID NO:5, VL SEQ ID NO:9 (antibody, V domains shown)
VH: B1 VH with T3Q, S88A, M93V
VL: B1 VL with D9G, P84E, V89S
B5: VH6/VK2: humanized anti-EphA5 antibody, VH SEQ ID NO:7, VL SEQ ID NO:10 (antibody, V domains shown)
VH: B1 VH with T3Q, Y50S, T63S, S88A, M93V
VL: B1 VL with V89S
B6: VH6/VK3: humanized anti-EphA5 antibody, VH SEQ ID NO:7, VL SEQ ID NO:11 (antibody, V domains shown)
VH: B1 VH with T3Q, Y50S, T63S, S88A, M93V
VL: B1 VL
B7: VH6/VK5: humanized anti-EphA5 antibody, VH SEQ ID NO:7, VL SEQ ID NO:13 (antibody, V domains shown)
VH: B1 VH with T3Q, Y50S, T63S, S88A, M93V
VL: B1 VL with A25S
B8: VH6/VK1: humanized anti-EphA5 antibody, VH SEQ ID NO:7, VL SEQ ID NO:9 (antibody, V domains shown)
VH: B1 VH with T3Q, Y50S, T63S, S88A, M93V
VL: B1 VL with D9G, P84E, V89S
B9: VH4/VK2: humanized anti-EphA5 antibody, VH SEQ ID NO:5, VL SEQ ID NO:10 (antibody, V domains shown)
VH: B1 VH with T3Q, S88A, M93V
VL: B1 VL with V89S
B10: VH5/VK5: humanized anti-EphA5 antibody, VH SEQ ID NO:6, VL SEQ ID NO:13 (antibody, V domains shown)
VH: B1 VH with T3Q, T63S, S88A, M93V
VL: B1 VL with A25S
B11: VH6/VK4: humanized anti-EphA5 antibody, VH SEQ ID NO:7, VL SEQ ID NO:12 (antibody, V domains shown)
VH: B1 VH with T3Q, Y50S, T63S, S88A, M93V
VL: B1 VL with A25S, V89S

Tests used:
[1] = molecular target: T1, rhEphA5 antigen (Homo sapiens, UniProt P54756); experiment: KD (M)
T1 construct: purchased R and D systems 3036-A5
Experimental: (§1) Table printed on a drawing sheet, FIG. 13
Head of the field: KD (M)
(§2) The patent's description of the figure: FIG. 13 is a table illustrating the single cycle kinetic parameters of chimeric (VH0/VK0) and humanized 11C12 variants (tested as cell culture supernatants) binding to rhEphA5 antigen as determined using the Biacore T200. The relative KD was calculated by dividing the KD of the humanized variant by that of the VH0/VK0 (top row) assayed in the same experiment. The variants marked with ‘*’ have KD values that are within two-fold of, or are better than, the chimeric antibody. The chimeric and selected variants marked in ‘#’ were identified as the main leads for purification. […]
(§3) Where the first naming reader finds the target: description_of_the_figure: humanized 11C12 variants (tested as cell culture supernatants) binding to rhEphA5 antigen as determined using the Biacore T200

[2] = molecular target: T1, rhEphA5 antigen; experiment: kd (1/s)
Experimental: as §1
Head of the field: kd (1/s)
as §2, §3

[3] = molecular target: T1, rhEphA5 antigen; experiment: ka (1/Ms)
Experimental: as §1
Head of the field: ka (1/Ms)
as §2, §3

Row | Molecule | Kd [1] | kd [2] | ka [3]
1 | B1 | 0.985 nM | 0.00132 s⁻¹ | –
2 | B2 | – | 0.00137 s⁻¹ | 1.37e-06 M⁻¹ s⁻¹
3 | B3 | – | 0.00127 s⁻¹ | –
4 | B4 | – | 0.00129 s⁻¹ | –
5 | B5 | – | – | 1.74e-09 M⁻¹ s⁻¹
6 | B6 | – | 0.341 s⁻¹ | 5.22e-09 M⁻¹ s⁻¹
7 | B7 | – | 0.285 s⁻¹ | –
8 | B8 | – | – | 1.65e-09 M⁻¹ s⁻¹
9 | B9 | – | 0.00114 s⁻¹ | –
10 | B10 | – | 0.0014 s⁻¹ | 1.37e-06 M⁻¹ s⁻¹
11 | B11 | – | 0.209 s⁻¹ | –
